Data taken from the supplement of paper PMC10567573.

B1: ZNF449 (parent)
chain: HKKKSPGEKPHRCPQCGKCFARKS
B2: TCEB3B (parent)
chain: STTALGDKQRKANESKGTRESWDS

Variants of: B1
Experiment: protein stability index of a GFP-peptide fusion (GPS, HEK-293T) (PSI 1-6); higher = more stable
Conditions: c terminus: a fixed tail appended
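Further: lentivirally expressed fusions sorted by FACS into six bins by GFP to DsRed ratio, PSI derived from sequencing read proportions per bin multiplied by bin number.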

Variant | protein stability index
HKKHSPGEKPHRCPQCGKCFARKS [K4H] | 3.41
HKKQSPGEKPHRCPQCGKCFARKS [K4Q] | 2.84
HKKWSPGEKPHRCPQCGKCFARKS [K4W] | 2.98
HKKGSPGEKPHRCPQCGKCFARKS [K4G] | 3.13
HKKFSPGEKPHRCPQCGKCFARKS [K4F] | 3.52
HKKLSPGEKPHRCPQCGKCFARKS [K4L] | 4.2
HKKASPGEKPHRCPQCGKCFARKS [K4A] | 2.87
HKKCSPGEKPHRCPQCGKCFARKS [K4C] | 3.75
HKKRSPGEKPHRCPQCGKCFARKS [K4R] | 4.01
HKKYSPGEKPHRCPQCGKCFARKS [K4Y] | 2.33
HKKTSPGEKPHRCPQCGKCFARKS [K4T] | 3.89
HKKMSPGEKPHRCPQCGKCFARKS [K4M] | 3.37
HKKVSPGEKPHRCPQCGKCFARKS [K4V] | 3.66
HKKPSPGEKPHRCPQCGKCFARKS [K4P] | 3.72
HKKSSPGEKPHRCPQCGKCFARKS [K4S] | 3.14
HSKKSPGEKPHRCPQCGKCFARKS [K2S] | 3.19
HCKKSPGEKPHRCPQCGKCFARKS [K2C] | 3.21
HGKKSPGEKPHRCPQCGKCFARKS [K2G] | 3.43
HVKKSPGEKPHRCPQCGKCFARKS [K2V] | 3.25
HYKKSPGEKPHRCPQCGKCFARKS [K2Y] | 2.37
HPKKSPGEKPHRCPQCGKCFARKS [K2P] | 3.46
HNKKSPGEKPHRCPQCGKCFARKS [K2N] | 3.78

Variant | protein stability index
HTKKSPGEKPHRCPQCGKCFARKS [K2T] | 3.03
HWKKSPGEKPHRCPQCGKCFARKS [K2W] | 3.04
HIKKSPGEKPHRCPQCGKCFARKS [K2I] | 2.98
HHKKSPGEKPHRCPQCGKCFARKS [K2H] | 3.27
HAKKSPGEKPHRCPQCGKCFARKS [K2A] | 3.42
HDKKSPGEKPHRCPQCGKCFARKS [K2D] | 2.92
HFKKSPGEKPHRCPQCGKCFARKS [K2F] | 3.32
HLKKSPGEKPHRCPQCGKCFARKS [K2L] | 3.41
HQKKSPGEKPHRCPQCGKCFARKS [K2Q] | 3.36
HMKKSPGEKPHRCPQCGKCFARKS [K2M] | 2.52
HKKKMPGEKPHRCPQCGKCFARKS [S5M] | 3.18
HKKKVPGEKPHRCPQCGKCFARKS [S5V] | 2.77
HKKKHPGEKPHRCPQCGKCFARKS [S5H] | 3.32
HKKKFPGEKPHRCPQCGKCFARKS [S5F] | 3.4
HKKKQPGEKPHRCPQCGKCFARKS [S5Q] | 3.84
HKKKYPGEKPHRCPQCGKCFARKS [S5Y] | 3.55
HKKKEPGEKPHRCPQCGKCFARKS [S5E] | 3.7
HKKKAPGEKPHRCPQCGKCFARKS [S5A] | 4.1
HKKKPPGEKPHRCPQCGKCFARKS [S5P] | 2.71
HKKKIPGEKPHRCPQCGKCFARKS [S5I] | 3.26
HKKKLPGEKPHRCPQCGKCFARKS [S5L] | 3.23
HKKKNPGEKPHRCPQCGKCFARKS [S5N] | 3.88

Variant | protein stability index
IKKKSPGEKPHRCPQCGKCFARKS [H1I] | 2.06
LKKKSPGEKPHRCPQCGKCFARKS [H1L] | 2.54
VKKKSPGEKPHRCPQCGKCFARKS [H1V] | 3.15
CKKKSPGEKPHRCPQCGKCFARKS [H1C] | 3.85
RKKKSPGEKPHRCPQCGKCFARKS [H1R] | 3.53
YKKKSPGEKPHRCPQCGKCFARKS [H1Y] | 3.16
KKKKSPGEKPHRCPQCGKCFARKS [H1K] | 3.5
WKKKSPGEKPHRCPQCGKCFARKS [H1W] | 2.7
DKKKSPGEKPHRCPQCGKCFARKS [H1D] | 3.73
GKKKSPGEKPHRCPQCGKCFARKS [H1G] | 3.68
SKKKSPGEKPHRCPQCGKCFARKS [H1S] | 4.38
NKKKSPGEKPHRCPQCGKCFARKS [H1N] | 4.13
TKKKSPGEKPHRCPQCGKCFARKS [H1T] | 2.88
AKKKSPGEKPHRCPQCGKCFARKS [H1A] | 3.37
HKKKSEGEKPHRCPQCGKCFARKS [P6E] | 3.4
HKKKSIGEKPHRCPQCGKCFARKS [P6I] | 3.19
HKKKSVGEKPHRCPQCGKCFARKS [P6V] | 2.98
HKKKSFGEKPHRCPQCGKCFARKS [P6F] | 3.36
HKKKSDGEKPHRCPQCGKCFARKS [P6D] | 2.73
HKKKSRGEKPHRCPQCGKCFARKS [P6R] | 3.51
HKKKSKGEKPHRCPQCGKCFARKS [P6K] | 3.39
HKKKSGGEKPHRCPQCGKCFARKS [P6G] | 4.52

Variant | protein stability index
HKKKSWGEKPHRCPQCGKCFARKS [P6W] | 3.05
HKKKSYGEKPHRCPQCGKCFARKS [P6Y] | 3.94
HKKKSNGEKPHRCPQCGKCFARKS [P6N] | 3.44
HKKKSQGEKPHRCPQCGKCFARKS [P6Q] | 3.57
HKKKSTGEKPHRCPQCGKCFARKS [P6T] | 4.38
HKWKSPGEKPHRCPQCGKCFARKS [K3W] | 3.1
HKYKSPGEKPHRCPQCGKCFARKS [K3Y] | 2.02
HKFKSPGEKPHRCPQCGKCFARKS [K3F] | 3.19
HKQKSPGEKPHRCPQCGKCFARKS [K3Q] | 3.14
HKAKSPGEKPHRCPQCGKCFARKS [K3A] | 3.73
HKMKSPGEKPHRCPQCGKCFARKS [K3M] | 3.42
HKVKSPGEKPHRCPQCGKCFARKS [K3V] | 3.51
HKLKSPGEKPHRCPQCGKCFARKS [K3L] | 3.46
HKTKSPGEKPHRCPQCGKCFARKS [K3T] | 2.07
HKGKSPGEKPHRCPQCGKCFARKS [K3G] | 3.33
HKIKSPGEKPHRCPQCGKCFARKS [K3I] | 3.15
HKDKSPGEKPHRCPQCGKCFARKS [K3D] | 2.5
HKHKSPGEKPHRCPQCGKCFARKS [K3H] | 4.24
HKRKSPGEKPHRCPQCGKCFARKS [K3R] | 3.46
HKPKSPGEKPHRCPQCGKCFARKS [K3P] | 3.12

Variants of: B2
Experiment: as above
Conditions: c terminus: a fixed tail appended

Variant | protein stability index
STTALGDKQRKANESKGTRRSWDS [E20R] | 4.2
STTALGDKQRKANESKGTRPSWDS [E20P] | 4.89
STTALGDKQRKANESKGTRWSWDS [E20W] | 4.5
STTALGDKQRKANESKGTRYSWDS [E20Y] | 4.92
STTALGDKQRKANESKGTRCSWDS [E20C] | 3.66
STTALGDKQRKANESKGTRVSWDS [E20V] | 4.32
STTALGDKQRKANESKGTRSSWDS [E20S] | 4.88
STTALGDKQRKANESKGTRHSWDS [E20H] | 4.89
